Assays:
[1] = biological target: T1, metavinculin-ΔH1 (lacking residues 895–915) (human, UniProt P18206 1-1134, lacking residues 895–915); test: pull-down; GST-Vt (0.5 µM) on GST-Sepharose beads, with or without pre-incubation with 5 µM PIP2; 15 µM His8-tagged metavinculin or deletion mutant pre-activated with talin-VBS3, 1 hr 37°C; 20 mM Tris-HCl pH 8, 150 mM NaCl; eluted with glutathione, SDS-PAGE, Western blot; conditions: both partners purified
T1 construct: human metavinculin, full length (1-1,134) lacking residues 895-915 (α-helix H1): 1-894 joined to 916-1,134; also called MV-ΔH1; source: E. coli BL21-DE3, purified (as full-length metavinculin); not shown: His8, N-terminal, kept
T1 sequence (looked up): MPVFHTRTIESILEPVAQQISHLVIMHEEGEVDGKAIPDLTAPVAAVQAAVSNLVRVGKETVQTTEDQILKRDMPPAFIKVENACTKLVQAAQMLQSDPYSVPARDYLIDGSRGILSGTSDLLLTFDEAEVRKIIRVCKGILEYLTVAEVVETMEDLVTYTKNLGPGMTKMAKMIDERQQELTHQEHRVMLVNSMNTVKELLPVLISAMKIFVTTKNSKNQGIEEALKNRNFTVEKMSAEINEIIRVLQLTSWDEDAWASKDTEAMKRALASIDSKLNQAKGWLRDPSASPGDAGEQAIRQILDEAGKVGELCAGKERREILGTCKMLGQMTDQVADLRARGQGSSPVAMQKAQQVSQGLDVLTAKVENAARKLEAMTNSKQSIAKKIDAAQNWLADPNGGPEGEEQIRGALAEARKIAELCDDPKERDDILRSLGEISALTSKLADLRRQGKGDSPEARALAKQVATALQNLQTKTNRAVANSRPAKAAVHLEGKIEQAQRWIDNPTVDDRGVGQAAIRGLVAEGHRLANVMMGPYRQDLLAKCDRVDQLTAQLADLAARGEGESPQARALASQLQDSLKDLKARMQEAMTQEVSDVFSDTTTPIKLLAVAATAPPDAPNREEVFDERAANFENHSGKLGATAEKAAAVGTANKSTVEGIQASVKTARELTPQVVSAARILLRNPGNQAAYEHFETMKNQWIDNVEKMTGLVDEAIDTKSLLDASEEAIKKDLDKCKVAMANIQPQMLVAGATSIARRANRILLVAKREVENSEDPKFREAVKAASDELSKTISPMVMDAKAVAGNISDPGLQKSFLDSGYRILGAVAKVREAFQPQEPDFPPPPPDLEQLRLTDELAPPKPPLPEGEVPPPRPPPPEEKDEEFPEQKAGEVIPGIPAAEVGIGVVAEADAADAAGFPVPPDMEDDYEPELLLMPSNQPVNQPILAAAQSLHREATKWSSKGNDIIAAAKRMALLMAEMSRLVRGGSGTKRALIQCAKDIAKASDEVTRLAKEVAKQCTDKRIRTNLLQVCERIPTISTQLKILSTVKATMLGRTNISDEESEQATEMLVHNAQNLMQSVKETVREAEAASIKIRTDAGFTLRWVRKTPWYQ

[2] = biological target: T2, metavinculin-ΔH1ΔH1′ (lacking residues 895–915 and 963–983) (human, UniProt P18206 1-1134, lacking residues 895–915 | lacking residues 963–983); test: as above; conditions: both partners purified
T2 construct: human metavinculin, full length (1-1,134) lacking residues 895-915 (H1) and 963-983 (H1′); source: E. coli BL21-DE3, purified (as full-length metavinculin); not shown: His8, N-terminal, kept
T2 sequence (looked up): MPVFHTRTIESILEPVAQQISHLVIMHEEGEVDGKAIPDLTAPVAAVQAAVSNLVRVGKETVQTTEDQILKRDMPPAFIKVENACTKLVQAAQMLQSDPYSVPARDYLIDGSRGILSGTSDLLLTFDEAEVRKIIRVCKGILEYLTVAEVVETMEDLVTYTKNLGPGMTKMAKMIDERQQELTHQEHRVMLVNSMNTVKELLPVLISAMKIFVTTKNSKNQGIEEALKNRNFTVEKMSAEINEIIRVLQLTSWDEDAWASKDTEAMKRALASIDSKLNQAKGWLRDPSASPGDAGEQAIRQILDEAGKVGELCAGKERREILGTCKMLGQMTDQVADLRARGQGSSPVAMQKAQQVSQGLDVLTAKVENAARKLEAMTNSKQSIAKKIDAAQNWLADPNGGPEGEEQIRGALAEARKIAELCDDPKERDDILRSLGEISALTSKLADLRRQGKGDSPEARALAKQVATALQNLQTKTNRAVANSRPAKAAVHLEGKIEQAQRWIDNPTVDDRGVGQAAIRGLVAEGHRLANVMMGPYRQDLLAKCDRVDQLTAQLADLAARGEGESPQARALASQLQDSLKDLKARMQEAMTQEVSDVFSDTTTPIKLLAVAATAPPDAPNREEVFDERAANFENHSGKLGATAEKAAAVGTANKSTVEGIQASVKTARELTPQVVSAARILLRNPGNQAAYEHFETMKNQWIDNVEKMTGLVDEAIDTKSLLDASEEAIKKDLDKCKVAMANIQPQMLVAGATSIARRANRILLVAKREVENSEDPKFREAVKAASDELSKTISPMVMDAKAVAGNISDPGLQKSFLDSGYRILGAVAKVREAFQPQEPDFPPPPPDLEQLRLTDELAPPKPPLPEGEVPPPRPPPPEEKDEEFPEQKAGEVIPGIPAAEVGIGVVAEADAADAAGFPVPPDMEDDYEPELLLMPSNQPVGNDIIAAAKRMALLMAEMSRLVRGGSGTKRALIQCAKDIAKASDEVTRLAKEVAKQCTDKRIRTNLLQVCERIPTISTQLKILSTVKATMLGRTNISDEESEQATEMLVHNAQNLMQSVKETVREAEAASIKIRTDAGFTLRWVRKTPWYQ

B1: GST tagged vinculin tail domain (GST-Vt; residues 879–1,066) (domain or fragment, human, UniProt P18206-2 879-1066, looked up)
chain: EEKDEEFPEQKAGEVINQPMMMAARQLHDEARKWSSKGNDIIAAAKRMALLMAEMSRLVRGGSGTKRALIQCAKDIAKASDEVTRLAKEVAKQCTDKRIRTNLLQVCERIPTISTQLKILSTVKATMLGRTNISDEESEQATEMLVHNAQNLMQSVKETVREAEAASIKIRTDAGFTLRWVRKTPWYQ
notes: human vinculin tail domain, residues 879-1,066 of vinculin (1,066-residue isoform), cloned in pGEX-4T-1; source: E. coli BL21-DE3, purified (GSTrap FF, Superdex 75)
- binding result [1]: binds
- binding result [2]: binds

Source: paper PMC2873289, “A Helix Replacement Mechanism Directs Metavinculin Functions” (PLoS ONE, 2010)
